Assays:
CD22 = CD22 (UniProt P20273); assay: Malibu-Glo assay; NLuc fusion supernatant on RAJI cells, control K562 cells
CD33 = CD33 (UniProt P20138); assay: Malibu-Glo assay; NLuc fusion supernatant on HL60 cells, control Jurkat cells
CD33, sequence (P20138 18-364 limits assumed): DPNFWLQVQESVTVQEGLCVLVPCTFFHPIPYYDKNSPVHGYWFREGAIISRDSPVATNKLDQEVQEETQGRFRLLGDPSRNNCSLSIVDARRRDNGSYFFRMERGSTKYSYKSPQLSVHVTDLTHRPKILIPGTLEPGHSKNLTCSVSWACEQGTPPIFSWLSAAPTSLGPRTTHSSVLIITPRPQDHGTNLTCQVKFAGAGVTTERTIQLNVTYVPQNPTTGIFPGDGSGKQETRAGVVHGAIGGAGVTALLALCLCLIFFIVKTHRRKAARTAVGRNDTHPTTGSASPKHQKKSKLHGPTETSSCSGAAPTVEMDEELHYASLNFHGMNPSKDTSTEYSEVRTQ

CD22, sequence (P20273 20-847 limits assumed): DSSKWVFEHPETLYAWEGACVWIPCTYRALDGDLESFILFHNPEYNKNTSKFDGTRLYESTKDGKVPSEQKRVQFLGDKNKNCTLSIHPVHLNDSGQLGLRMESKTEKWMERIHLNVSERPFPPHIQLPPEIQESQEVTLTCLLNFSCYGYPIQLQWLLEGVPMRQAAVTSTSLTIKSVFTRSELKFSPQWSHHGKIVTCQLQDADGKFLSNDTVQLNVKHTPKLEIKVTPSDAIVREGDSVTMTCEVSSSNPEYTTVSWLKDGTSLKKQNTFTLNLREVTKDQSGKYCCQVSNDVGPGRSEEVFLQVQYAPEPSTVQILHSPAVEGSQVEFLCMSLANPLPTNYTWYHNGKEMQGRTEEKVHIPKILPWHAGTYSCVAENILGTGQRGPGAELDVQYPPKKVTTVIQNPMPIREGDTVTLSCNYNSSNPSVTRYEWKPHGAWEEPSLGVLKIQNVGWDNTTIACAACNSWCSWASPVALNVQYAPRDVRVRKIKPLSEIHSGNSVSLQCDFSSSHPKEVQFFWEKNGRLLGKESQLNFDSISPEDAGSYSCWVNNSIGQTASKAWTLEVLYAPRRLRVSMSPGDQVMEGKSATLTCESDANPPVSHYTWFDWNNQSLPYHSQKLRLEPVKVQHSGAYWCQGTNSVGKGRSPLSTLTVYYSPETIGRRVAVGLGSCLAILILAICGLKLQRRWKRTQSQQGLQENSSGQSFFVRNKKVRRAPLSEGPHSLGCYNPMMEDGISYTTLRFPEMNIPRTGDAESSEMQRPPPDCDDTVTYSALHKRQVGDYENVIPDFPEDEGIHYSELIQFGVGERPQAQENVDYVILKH

Fold Change (Luc activity, target cell line over control cell line) (CD22) [fold]	Fold Change (Luc activity, target cell line over control cell line) (CD33) [fold]	Binder
4.32		hu-077-USC1 vHH (CD22), NLuc fusion (VHH, part only; not given: NLuc luciferase fusion partner, part only) VHH, part: QVQLQESGPGLVKPSQTLSLTCTVSGGSITTGEFYWNWFRQPPGKGLEWMGAIAASGSTTYSPSFESRTSISRDTSKNQFSLKLSSVTAADTAVYYCGRSFGVAAVTTGQNRGQGTLVTVSS
	17	hA873-G30S vHH (CD33), NLuc fusion (VHH, part only; not given: NLuc luciferase fusion partner, part only) VHH, part: QVQLVESGGGVVQPGRSLRLSCVASGYTYSINCMGWFRQAPGKGREGIAAISTGGGTTGVADSVKGRFTISQDNAKNTVYLQMNSLRAEDTAMYYCAARSTYSGYACVYSEVNGYNYRGQGTQVTVSS

— patent US20260226133A1
